The target in this series is ubiquitin (in vitro thiol-ubiquitination experiment, source not stated).

Consider one protein from patent publication US20030199036.

B1: human pub2 (protein)
chain: MERPYTFKDFLLRPRSHKSRVKGFLRLKMAYMPKNGGQDEENSDQRDDMEHGWEVVDSNDSASQHQEELPPPPLPPGWEEKVDNLGRTYYVNHNNRTTQWHRPSLMDVSSESDNNIRQINQEAAHRRFRSRRHISEDLEPEPSEGGDVPEPWETISEEVNIAGDSLGLALPPPPVSPGSRTSPQELSEELSRRLQITPDSNGEQFSSLIQREPSSRLRSCSVTDAVAEQGHLPPPSVAYVHTTPGLPSGWEERKDAKGRTYYVNHNNRTTTWTRPIMQLAEDGASGSATNSNNHLIEPQIRRPRSLSSPTVTLSAPLEGAKDSPVRRAVKDTLSNPQSPQPSPYNSPKPQHKVTQSFLPPGWEMRIAPNGRPFFIDHNTKTTTWEDPRLKFPVHMRSKTSLNPNDLGPLPPGWEERIHLDGRTFYIDHNSKITQWEDPRLQNPAITGPAVPYSREFKQKYDYFRKKLKKPADIPNRFEMKLHRNNIFEESYRRIMSVKRPDVLKARLWIEFESEKGLDYGGVAREWFFLLSKEMFNPYYGLFEYSATDNYTLQINPNSGLCNEDHLSYFTFIGRVAGLAVFHGKLLDGFFIRPFYKMMLGKQITLNDMESVDSEYYNSLKWILENDPTELDLMFCIDEENFGQTYQVDLKPNGSEIMVTNENKREYIDLVIQWRFVNRVQKQMNAFLEGFTELLPIDLIKIFDENELELLMCGLGDVDVNDWRQHSIYKNGYCPNHPVIQWFWKAVLLMDAEKRIRLLQFVTGTSRVPMNGFAELYGSNGPQLFTIEQWGSPEKLPRAHTCFNRLDLPPYETFEDLREKLLMAVENAQGFEGVD
For B1, the thiol-ubiquitination in vitro entry is “both h-pub1 and h-pub2 can become thiol-ubiquitinated in vitro”.
